From US6365161 come the findings set out here.

Experiment [1] concerns the target soluble fusion protein consisting of the extracellular domain of human FcγRI and human IgM heavy chain (sFcγRI-µ) (human) (UniProt P12314). Description: ELISA on captured FcγRI/IgM heavy chain fusion protein, in excess human IgG1. Background: In an ELISA, binding on a coated surface is turned into a signal by an enzyme label.
Experiment [2] shares this target. Description: ELISA on captured FcγRI/IgM heavy chain fusion protein, against a nonspecific human IgG1.
Experiment [3] concerns the target human FcγRI (CD64) on cells (human) (UniProt P12314). Description: cell-based or functional assay.
The target is the same in experiment [4]. Description: flow cytometry, fluorescein-conjugated antibody on peripheral blood monocytes. In general terms: In flow cytometry, cells or beads pass a laser one at a time.
Target sequence in this assay (P12314 16-374): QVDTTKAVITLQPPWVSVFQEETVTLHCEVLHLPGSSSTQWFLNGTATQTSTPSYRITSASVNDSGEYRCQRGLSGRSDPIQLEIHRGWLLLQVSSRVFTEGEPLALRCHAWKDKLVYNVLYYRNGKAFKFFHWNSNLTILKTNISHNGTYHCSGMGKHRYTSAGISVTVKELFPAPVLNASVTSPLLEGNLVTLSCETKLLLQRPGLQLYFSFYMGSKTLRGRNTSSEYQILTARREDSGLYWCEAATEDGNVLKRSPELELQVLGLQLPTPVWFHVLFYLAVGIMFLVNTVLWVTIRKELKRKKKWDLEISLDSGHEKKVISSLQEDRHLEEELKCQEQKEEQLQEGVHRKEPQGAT

soluble fusion protein consisting of the extracellular domain of human FcγRI and human IgM heavy chain (sFcγRI-µ) (human), sequence (P12314 other isoform, or with tags, fused parts or gaps limits assumed): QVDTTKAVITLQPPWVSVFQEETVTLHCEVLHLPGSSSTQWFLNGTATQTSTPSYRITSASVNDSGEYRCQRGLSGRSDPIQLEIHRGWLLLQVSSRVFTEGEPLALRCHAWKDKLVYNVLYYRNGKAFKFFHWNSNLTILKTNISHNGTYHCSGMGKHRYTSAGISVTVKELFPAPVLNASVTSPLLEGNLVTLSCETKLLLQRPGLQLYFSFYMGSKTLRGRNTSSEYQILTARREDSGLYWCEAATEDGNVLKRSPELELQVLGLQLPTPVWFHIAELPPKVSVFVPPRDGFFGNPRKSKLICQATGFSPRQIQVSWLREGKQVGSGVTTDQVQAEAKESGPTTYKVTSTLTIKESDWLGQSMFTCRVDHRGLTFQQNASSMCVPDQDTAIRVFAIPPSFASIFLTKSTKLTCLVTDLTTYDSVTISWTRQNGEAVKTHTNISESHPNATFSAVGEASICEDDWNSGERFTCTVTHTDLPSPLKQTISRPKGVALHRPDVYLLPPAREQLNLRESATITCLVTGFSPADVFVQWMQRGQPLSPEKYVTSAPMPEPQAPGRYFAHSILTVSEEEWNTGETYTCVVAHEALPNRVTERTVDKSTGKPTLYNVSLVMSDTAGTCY

In the case of “NEWM VH/REI Vκ humanized mAb 22 (antibody)”, the fold lower affinity than the chimeric mAb in experiment [1] worked out at 5 fold. In experiment [2], the percent of binding via the Fv portion was more than 95%. In experiment [3], TsAb m22 Fab′x32.2 Fab′xm22 Fab′ returned a FcγRI expression on monocytes in whole blood (modulation assay) (% of the level prior to BsAb treatment) of 50. “chemically linked M22 Fab′ multimer M22 F(ab′)3+” showed a human CD64 surface expression on macrophages of human CD64-transgenic mice in experiment [3] of less than 50 % reduction. In experiment [4], “murine anti-FcγRI monoclonal antibody M22” showed an Antibody sites per cell (antibody sites per cell) of 10000.
